Sequences and labels used below:
B1: CBP-KIX MLLmut (I660A and L664A) (domain or fragment)
chain: not shown
B2: CBP-KIX c-Mybmut (Y650A, A654Q, and Y658A) (domain or fragment)
chain: not shown
B3: FOXO4-CR3 (conserved region 3, transactivation domain of FOXO4, aa 469–505) (domain or fragment, UniProt P98177 469-505, looked up)
chain: DLDLDMYMENLECDMDNIISDLMDEGEGLDFNFEPDP

Test [1] deals with B3. The test is described as follows: ITC.
Test [2] has as its target B2. The test is described as follows: NMR titration.
In test [3] the target is B2. The test is described as follows: ITC. (In ITC the heat of successive injections is recorded.)
The target in test [4] is B1. The test is described as follows: ITC.
The target in test [5] is KIX domain of CBP (CBP-KIX, aa 586–672) (UniProt P45481 586-672). The test is described as follows: ITC.
Chain of KIX domain of CBP (CBP-KIX, aa 586–672) (P45481 586-672): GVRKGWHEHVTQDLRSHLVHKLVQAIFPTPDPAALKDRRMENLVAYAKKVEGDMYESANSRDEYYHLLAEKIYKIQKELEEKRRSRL
In test [6] the target is B2. The test is described as follows: paramagnetic relaxation enhancement.

Ends that are not written are not given here. * marks the point of attachment. MTSL = CC1(C)C=C(CS*)C(C)(C)N1[O]

For B1, the dH in test [1] was -4.58 kcal/mol.
Same read-out and setting: next, B2: -1.43 kcal/mol.
On to DLDLDMYMENLECDMDNIISDLADEGEGLDFNFEPDP (domain or fragment, UniProt P98177 469-505, looked up) [FOXO4-CR3 M491A], for which the binding result in test [2] is on record as “binds”.
Take B3: the values for the dissociation constant (Kd) in test [3], in test [4] and in test [5] were 1200 nM, 2760 nM and 3350 ± 140 nM, respectively.
As to DLDLDMYMENLEC(MTSL)DMDNIISDLMDEGEGLDFNFEPDP (domain or fragment, UniProt P98177 469-505, looked up) [FOXO4-CR3 labelled with MTSL at C481], in test [6], the binding result is reported as “binds”.

For the origin of these results see paper PMC12698673 (Communications Biology, 2025).
